# ± gives the standard deviation of the averaged measurements.
# Test system: Saccharomyces cerevisiae
# Test: protein stability index of tFT-peptide fusion (C-terminal peptide) (PSI (0-1 scale)); higher = more stable (slower turnover)
# Conditions: genetic background: wild type; temperature: 30 C
# 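Note: PSI is a weighted mean of sequencing reads over stability bins, variants kept only with over 10 reads, mCherry proximal and sfGFP distal, peptide attached via GGGS linker.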
row,Sequence,protein stability index
1,RACRISSIRVGI,0.651 ± 0.014
2,RAFVSDLPHPKS,0.704 ± 0.098
3,RAKGILPESEQI,0.72 ± 0.035
4,RAKRADPSGPPR,0.724 ± 0.051
5,RALGDGRLGQDT,0.682 ± 0.014
6,RALITRAPSKER,0.795 ± 0.084
7,RALSPFPSILPS,0.719 ± 0.068
8,RAMGDRSIRLDV,0.679 ± 0.02
9,RAPPPPHPSSPP,0.744 ± 0.079
10,RAPVRPSEYTRP,0.681 ± 0.028
11,RARASLIPNAGT,0.705 ± 0.037
12,RARTKGRMRTCR,0.749 ± 0.15
13,RASQRGVRGGGG,0.666 ± 0.02
14,RAWELPRLRGRE,0.6682 ± 0.0039
15,RCAGWSVDVGEG,0.623 ± 0.17
16,RCCVPCWFMTLV,0.555 ± 0.021
17,RCFQPLRQRMGR,0.734 ± 0.064
18,RCGGIWWIVSSV,0.669 ± 0.081
19,RCHAFGEWLRGW,0.733 ± 0.003
20,RCLGFSACPATY,0.809 ± 0.14
21,RCLRGGMLGFGR,0.627 ± 0.052
22,RCPRRASSPTLS,0.843 ± 0.17
23,RCSPPVFDTGES,0.652 ± 0.017

row,Sequence,protein stability index
1,RCTLSSFIYFCP,0.601 ± 0.039
2,RCTPPPPTPPAT,0.6832 ± 0.0027
3,RCVGVLYVAGLE,0.6533 ± 0.0012
4,RCVGWRRTPESS,0.739 ± 0.064
5,RDGLVPFCVVII,0.615 ± 0.048
6,RDKKMKHIKDKR,0.79 ± 0.11
7,RDLGPSAISMTV,0.628 ± 0.043
8,RDPPLLQPTTSS,0.648 ± 0.018
9,RDQMDNILQRFR,0.656 ± 0.077
10,RDSMVFEVRYSQ,0.698 ± 0.1
11,REEKRREEEGKK,0.701 ± 0.028
12,REGGDPPDGGTG,0.734 ± 0.039
13,REKEIIIIKKEK,0.683 ± 0.037
14,RETSGEVESDVT,0.678 ± 0.014
15,REVGSTILAVVH,0.645 ± 0.031
16,RFAPCSPPADPS,0.68 ± 0.019
17,RFCRPVCRFNLG,0.647 ± 0.063
18,RFLCPSSFIELL,0.794 ± 0.12
19,RFLESNGRPFHK,0.673 ± 0.0088
20,RFRDSGRWLSAE,0.765 ± 0.063
21,RFRTVFFPLPRC,0.716 ± 0.062
22,RFVCSRLGGSVP,0.64 ± 0.0029
23,RGARRHSPTARW,0.717 ± 0.037

row,Sequence,protein stability index
1,RGAVEAGGWRIG,0.682 ± 0.0087
2,RGFGPTPRSSGG,0.707 ± 0.046
3,RGFPALLPAPAC,0.753 ± 0.12
4,RGGAGGRQGCGG,0.746 ± 0.043
5,RGGARGRQGCGG,0.765 ± 0.034
6,RGGGAGAVQYRS,0.642 ± 0.014
7,RGGGGGGIGFPR,0.681 ± 0.066
8,RGGGGGRVAREC,0.668 ± 0.011
9,RGGGQAKAPAGD,0.6566 ± 0.0011
10,RGGWGGYRGGVP,0.757 ± 0.021
11,RGGWWGYRGGVP,0.718 ± 0.057
12,RGIFLGVCALDY,0.696 ± 0.0085
13,RGKGGKKRRKRD,0.648 ± 0.07
14,RGKKKAKIYREH,0.766 ± 0.13
15,RGLDNSGVVAGG,0.715 ± 0.025
16,RGLGGWAECGRW,0.76 ± 0.05
17,RGLGLVGLGGGG,0.727 ± 0.012
18,RGLRIRFKKIDK,0.704 ± 0.078
19,RGNSPPPSSPPL,0.687 ± 0.038
20,RGPGRTPLGRQL,0.68915 ± 0.00044
21,RGRRFMRGEVGG,0.6528 ± 0.0055
22,RGRWGVYISSWV,0.626 ± 0.048
23,RGSPCPQRAALH,0.7 ± 0.035

row,Sequence,protein stability index
1,RGSQRVVVSLGW,0.726 ± 0.0073
2,RGVGFMGEGVTW,0.656 ± 0.069
3,RGVGGAPVWPFV,0.765 ± 0.0093
4,RGVLVTVNWVSG,0.499 ± 0.038
5,RGVREVGSAELV,0.731 ± 0.022
6,RGVVRYVNGSRG,0.568 ± 0.083
7,RGYVSLSEGVAA,0.676 ± 0.058
8,RHAMNPNTSRVL,0.601 ± 0.042
9,RHGDRLEHPIPV,0.611 ± 0.031
10,RHLESERAPLPG,0.688 ± 0.018
11,RHPEVGAATDGC,0.708 ± 0.068
12,RHSAQRPRARHP,0.79 ± 0.032
13,RICRWGSRAVVG,0.685 ± 0.015
14,RIETHNQKSPGL,0.737 ± 0.0023
15,RIGRHLATSRRV,0.679 ± 0.0089
16,RIHQRTSLHKAH,0.609 ± 0.13
17,RIKKKKNKARDI,0.734 ± 0.035
18,RIKNMNNNEEKR,0.714 ± 0.2
19,RIKTRDVSGNYC,0.708 ± 0.026
20,RILFGALYSSCK,0.6782 ± 0.0062
21,RILPPPPPPSSR,0.754 ± 0.026
22,RIPHRTRLARPT,0.6716 ± 0.0064
23,RIRPPPAPPPPP,0.569 ± 0.019

row,Sequence,protein stability index
1,RITKKRQQIKKR,0.7482 ± 0.0028
2,RIVLGCSVVLRG,0.615 ± 0.012
3,RIVLLICPYPVL,0.554 ± 0.056
4,RIWEVQFRRLSE,0.823 ± 0.074
5,RKEETINKESRR,0.742 ± 0.032
6,RKEGRRGRRGAK,0.691 ± 0.069
7,RKETQKIRKKRI,0.679 ± 0.03
8,RKGEASRVRWSE,0.668 ± 0.061
9,RKGRVLIMTYRK,0.682 ± 0.051
10,RKGSVVILGLGL,0.65248 ± 0.0003
11,RKKFKKQKKKNI,0.703 ± 0.073
12,RKKGGNSKKGKN,0.774 ± 0.12
13,RKKHKYNKKNGQ,0.666 ± 0.07
14,RKKREKKGRRGK,0.668 ± 0.0068
15,RKKRNKDARQQN,0.679 ± 0.057
16,RKLAEVNCTVKV,0.664 ± 0.036
17,RKRASHALTPPC,0.732 ± 0.024
18,RKRVKRTIYESK,0.635 ± 0.1
19,RKSPRDTGLQRA,0.706 ± 0.19
20,RKTPAITSNIQI,0.722 ± 0.027
21,RKTPIKTKKSAR,0.687 ± 0.09
22,RLEERTNIKKIK,0.699 ± 0.045
23,RLELRVPPSFAH,0.715 ± 0.0095

row,Sequence,protein stability index
1,RLFSPLRPLSPP,0.668 ± 0.032
2,RLFSSSCLPFPP,0.781 ± 0.16
3,RLGAELGQLRCC,0.66 ± 0.04
4,RLGGSLQRGKVV,0.734 ± 0.088
5,RLGNVGVGVGVG,0.616 ± 0.039
6,RLGRSEVREYAW,0.716 ± 0.024
7,RLHPPRPLTPPL,0.683 ± 0.0087
8,RLKFCLSICLAP,0.7321 ± 0.003
9,RLKKKKKEIKRR,0.721 ± 0.011
10,RLLHLMCFCSGP,0.644 ± 0.031
11,RLLPCATPHPDL,0.647 ± 0.015
12,RLLPVTISSSLS,0.702 ± 0.031
13,RLLYGIYDHGRQ,0.731 ± 0.091
14,RLMKQKKMKRRK,0.724 ± 0.025
15,RLPCPLRSRALS,0.626 ± 0.03
16,RLPHPPARVFSI,0.691 ± 0.011
17,RLPPLFPPPPPC,0.709 ± 0.038
18,RLPPPPPPSPHL,0.711 ± 0.054
19,RLPVRSGAMHGC,0.665 ± 0.011
20,RLSGHLRLGRLG,0.672 ± 0.086
21,RLSSCSAPFPLL,0.7194 ± 0.0068
22,RLTDPHWALIQS,0.839 ± 0.2
23,RLTKKKKEIKRR,0.717 ± 0.014

row,Sequence,protein stability index
1,RLTLTAKDNEGC,0.733 ± 0.1
2,RLVDCDLTDKWH,0.696 ± 0.018
3,RLVSIHDTRESL,0.727 ± 0.012
4,RLVSPVLPLSRL,0.728 ± 0.031
5,RLYPVPARPSPS,0.629 ± 0.046
6,RMEPPLCIISPK,0.6605 ± 0.0065
7,RNKKKKEKKKVE,0.693 ± 0.038
8,RNLCHILRHERT,0.708 ± 0.088
9,RNQTRKTTQKPR,0.661 ± 0.01
10,RNRVVPITARLT,0.545 ± 0.014
11,RNTIKMKENKRI,0.643 ± 0.042
12,RNTKGIIKKKKE,0.702 ± 0.042
13,RNYEGTKIEEQE,0.7219 ± 0.0047
14,RNYEKRSIIVCK,0.497 ± 0.031
15,RNYIVLYYDEGD,0.673 ± 0.074
16,RPAESPPAFYNR,0.774 ± 0.062
17,RPAGGPSGGEGV,0.689 ± 0.074
18,RPDTGPPRRNRE,0.715 ± 0.031
19,RPFVSSAGSQFP,0.808 ± 0.046
20,RPFYPLVRPRTR,0.798 ± 0.2
21,RPGAFDNGLTLP,0.682 ± 0.055
22,RPGGRLLVWVGG,0.55 ± 0.038
